Results taken from FireProtDB (doi:10.1111/febs.12694).
“And” between values parts separate entries of the source, which are not always exact repeats. Equal entries are not always repeated.

Settings: Halobacterium salinarum (strain ATCC 700922 / JCM 11081 / NRC-1), Thermal, transition: 2, whole UniProt chain shown

B1: Bacteriorhodopsin wild type, P02945 (protein)
chain: MLELLPTAVEGVSQAQITGRPEWIWLALGTALMGLGTLYFLVKGMGVSDPDAKKFYAITTLVPAIAFTMYLSMLLGYGLTMVPFGGEQNPIYWARYADWLFTTPLLLLDLALLVDADQGTILALVGADGIMIGTGLVGALTKVYSYRFVWWAISTAAMLYILYVLFFGFTSKAESMRPEVASTFKVLRNVTVVLWSAYPVVWLIGSEGAGIVPLNIETLLFMVLDVSAKVGFGLILLRSRAIFGEAEAPEPSAGDGAAATSD
With B1 the Tm (pH 3.5, DSC) was 76.6 °C, the Tm (pH 4, UV spectroscopy) was 69.2 °C and 67 °C and the Tm (pH 7, DSC) was 98.2 °C. The Tm (pH 7, UV spectroscopy) was 90.5 °C, the Tm (pH 9, DSC) was 94.5 °C and the Tm (pH 9.5, UV spectroscopy, glycine buffer) was 86 °C.
